Data reported in patent US20030133971.

Test system: recombinant SDI-1 protein

## CDK2 (kinase assays of Example 11)
  phosphorylation of histone H1: The recombinant SDI-1 protein of the present invention inhibits the phosphorylation of histone H1 by CDK2
